Target: LexA repressor (UniProt P0A7C2 P0A7C2:1-202)
Experiment: operator region protected from integration by wild type IN; 5 mM MgCl2, 37 C
Conditions: chain copies: 2 (stated)
Protocol: Assay for integration into pBR322 targets containing lexA operators. Integration of the model viral DNA duplex into a heterologous target was measured using a PCR-based assay similar to that described by Pryciak et al., EMBO J. 11: 291–303 (1992). The target DNAs, pBR322 derivatives, contain the lexA operator region. To measure integration into a specific region, a "target" PCR primer was selected, which was ca. 250 bp from the lexA operator region. The "viral" primer was identical to the 16nt DNA strand to be joined to the target DNA. The length of the PCR product corresponds to the distance from the target primer site to the integration site. Integration assays contained approximately 0.2 pmoles of PstI linerarized plasmid target DNA, 35 pmoles of IN or IN-lexA fusion protein and 0.1 pmol of viral DNA ends (model substrate). The reaction mixture contained 20 mM Tris-HCl and 5 mM MgCl_2. The viral DNA substrate was a 18 mer/16 mer duplex with a recessed end. This corresponds to a processed viral DNA end, as described previously (Katzman et al., 1989, supra). […] Recovery of target DNA was monitored by agarose gel electrophoresis. […] Products were analyzed on 7% acrylamide-urea sequencing gels. Fragment sizes were determined using a ØX174HaeIII digest and a 10 bp ladder (Bethesda Research Labs).

Chain of LexA repressor (P0A7C2 whole entry, one chain of several): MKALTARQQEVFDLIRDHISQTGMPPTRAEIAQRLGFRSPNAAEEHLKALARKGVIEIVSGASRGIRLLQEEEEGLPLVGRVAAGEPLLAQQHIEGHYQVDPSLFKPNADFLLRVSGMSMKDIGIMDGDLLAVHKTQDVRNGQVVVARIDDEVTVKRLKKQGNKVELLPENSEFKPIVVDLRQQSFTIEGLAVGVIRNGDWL

B1: tandem lexA operator segment (in pBR711-2) (dsDNA)
DNA 1: GGGGTCGACATTACTGTATATATATACAGCATAACTGTATATATATACAGTATAGGATCCGGG
DNA 2: CCCGGATCCTATACTGTATATATATACAGTTATGCTGTATATATATACAGTAATGTCGACCCC
binding result: binds

— US6150511 (Fox Chase Cancer Center)
